Data reported in article PMC3305660, “Regulatory interactions for iron homeostasis in Aspergillus fumigatus inferred by a Systems Biology approach”.

T1: SrbA161-267 (bHLHZ DNA-binding domain) (Aspergillus fumigatus, UniProt Q4WIN1 161-267)
T1 sequence: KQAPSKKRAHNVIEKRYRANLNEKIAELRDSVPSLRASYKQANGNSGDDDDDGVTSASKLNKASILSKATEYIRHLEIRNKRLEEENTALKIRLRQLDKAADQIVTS

B1: hapXpmm12 (hapX -1340 to -1331) (dsDNA)
DNA 1: CAGATAAGATCAGATGATGAAGGGAT
DNA 2: ATCCCTTCATCATCTGATCTTATCTG
B2: srbApmm0 (srbA -735 to -726) (dsDNA)
DNA 1: TTCCCGCGATCATACGATGTGCTCCG
DNA 2: CGGAGCACATCGTATGATCGCGGGAA
B3: hemApmm11 (hemA -527 to -518) (dsDNA)
DNA 1: TCCCCAGTATCGGATCATACGGCTAC
DNA 2: GTAGCCGTATGATCCGATACTGGGGA
B4: hapXpmm11 (hapX -774 to -783) (dsDNA)
DNA 1: GCCTTTGAATGGGAGGATTCTTTATT
DNA 2: AATAAAGAATCCTCCCATTCAAAGGC
B5: srbApmm0mut (srbA* mutated site) (dsDNA)
DNA 1: TTCCCGCGATATAACATAGTGCTCCG
DNA 2: CGGAGCACTATGTTATATCGCGGGAA
B6: hemApmm12 (hemA -338 to -347) (dsDNA)
DNA 1: CTGAGGCAATGAGGCGATGAGGCAAC
DNA 2: GTTGCCTCATCGCCTCATTGCCTCAG

Molecular target: T1, SrbA161-267 (bHLHZ DNA-binding domain)
Assay: SPR; SPR kinetics on immobilized biotinylated DNA duplexes; buffer, salt, pH and temperature not given in the material (details in Additional file 2)
Conditions: protein: recombinant; chain copies: 2; label: 5' biotin on strand 1; blunt

Binder | Kd [nM]
B1 | 4.64 ± 0.03
B2 | 0.63 ± 0.04
B3 | 4.18 ± 0.41
B4 | 282 ± 5.1
B5 | 386 ± 7.3
B6 | 35.7 ± 0.52
